According to PMC4357707 (Nucleic Acids Research, 2015):
Like-named read-outs stand apart in the source and are kept apart here.

Columns and labels:
Experiment in all cases: EMSA
HEN1 Δ38-45 [1] = target: T1, HEN1 Δ38-45 (Arabidopsis thaliana, UniProt Q9C5Q8 1-37+=G+46-942, internal_change)
T1 sequence: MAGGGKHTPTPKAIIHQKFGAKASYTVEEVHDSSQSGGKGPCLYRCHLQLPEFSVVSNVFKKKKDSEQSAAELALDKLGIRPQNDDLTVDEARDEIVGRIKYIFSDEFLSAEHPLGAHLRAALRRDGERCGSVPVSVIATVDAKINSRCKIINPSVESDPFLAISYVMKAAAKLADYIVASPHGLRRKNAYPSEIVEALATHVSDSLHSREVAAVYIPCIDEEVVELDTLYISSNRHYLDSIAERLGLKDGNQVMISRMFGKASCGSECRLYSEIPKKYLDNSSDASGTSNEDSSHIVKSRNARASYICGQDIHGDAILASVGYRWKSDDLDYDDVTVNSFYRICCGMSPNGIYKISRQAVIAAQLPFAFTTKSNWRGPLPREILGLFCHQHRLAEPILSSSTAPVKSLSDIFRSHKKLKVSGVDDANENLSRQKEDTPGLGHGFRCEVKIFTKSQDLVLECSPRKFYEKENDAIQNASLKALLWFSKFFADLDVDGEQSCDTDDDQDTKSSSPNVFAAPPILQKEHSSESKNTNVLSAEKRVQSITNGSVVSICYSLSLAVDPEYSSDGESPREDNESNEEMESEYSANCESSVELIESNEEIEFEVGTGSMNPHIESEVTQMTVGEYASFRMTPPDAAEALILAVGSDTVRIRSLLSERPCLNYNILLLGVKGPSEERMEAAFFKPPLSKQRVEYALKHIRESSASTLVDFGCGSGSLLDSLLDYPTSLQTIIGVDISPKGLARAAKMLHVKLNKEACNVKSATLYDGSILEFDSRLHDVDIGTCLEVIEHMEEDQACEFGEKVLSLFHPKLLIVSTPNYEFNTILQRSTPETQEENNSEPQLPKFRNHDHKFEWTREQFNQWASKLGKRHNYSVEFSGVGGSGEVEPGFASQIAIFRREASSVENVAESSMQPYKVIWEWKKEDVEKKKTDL

HEN1 wt = target: T2, HEN1 wt (Arabidopsis thaliana, UniProt Q9C5Q8 1-942)
T2 sequence: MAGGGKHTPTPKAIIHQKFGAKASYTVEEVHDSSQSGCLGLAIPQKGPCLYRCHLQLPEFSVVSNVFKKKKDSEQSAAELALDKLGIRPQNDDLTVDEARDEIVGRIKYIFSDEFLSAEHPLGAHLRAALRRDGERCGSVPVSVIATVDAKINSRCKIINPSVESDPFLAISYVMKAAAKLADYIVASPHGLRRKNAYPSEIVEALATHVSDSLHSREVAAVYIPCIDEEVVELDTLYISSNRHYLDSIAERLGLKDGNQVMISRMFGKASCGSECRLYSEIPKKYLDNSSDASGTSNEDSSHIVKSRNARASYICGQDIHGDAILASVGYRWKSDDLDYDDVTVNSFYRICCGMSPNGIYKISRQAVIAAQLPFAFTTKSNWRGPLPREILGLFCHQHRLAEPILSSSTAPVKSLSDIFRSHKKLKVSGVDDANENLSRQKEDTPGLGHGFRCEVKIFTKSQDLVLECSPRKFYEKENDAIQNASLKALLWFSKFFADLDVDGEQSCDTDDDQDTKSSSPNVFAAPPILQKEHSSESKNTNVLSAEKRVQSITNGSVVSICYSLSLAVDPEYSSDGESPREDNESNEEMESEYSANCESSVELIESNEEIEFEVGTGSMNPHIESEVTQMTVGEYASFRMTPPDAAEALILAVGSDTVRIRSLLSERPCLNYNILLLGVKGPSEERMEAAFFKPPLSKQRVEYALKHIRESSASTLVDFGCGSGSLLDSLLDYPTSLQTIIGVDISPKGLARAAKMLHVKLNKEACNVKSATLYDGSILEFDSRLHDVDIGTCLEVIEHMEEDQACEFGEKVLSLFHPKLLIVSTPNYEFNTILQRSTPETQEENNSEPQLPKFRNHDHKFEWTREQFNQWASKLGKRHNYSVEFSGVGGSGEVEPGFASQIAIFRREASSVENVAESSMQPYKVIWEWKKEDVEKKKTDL

HEN1 Δ38-45 [2] = target: T1, HEN1 Δ38-45; remark: listed apart in the source

B1: miR173/miR173* (dsRNA)
RNA 1: UUCGCUUGCAGAGAGAAAUCAC
RNA 2: GAUUCUCUGUGUAAGCGAAAG
For B1, the Kd (HEN1 Δ38-45 [1]) was 0.79 ± 0.05 nM, the Kd (HEN1 wt) was 0.43 ± 0.05 nM and the Kd (HEN1 Δ38-45 [2]) was 0.32 ± 0.04 nM.
